# Experimental data taken from paper doi:10.1101/2024.05.10.593562 (bioRxiv, 2024).
# Target: HDAC1-FLAG (UniProt Q13547 1-482)
# Experiment: AlphaScreen or HTRF
# Chain of HDAC1-FLAG (Q13547 whole entry): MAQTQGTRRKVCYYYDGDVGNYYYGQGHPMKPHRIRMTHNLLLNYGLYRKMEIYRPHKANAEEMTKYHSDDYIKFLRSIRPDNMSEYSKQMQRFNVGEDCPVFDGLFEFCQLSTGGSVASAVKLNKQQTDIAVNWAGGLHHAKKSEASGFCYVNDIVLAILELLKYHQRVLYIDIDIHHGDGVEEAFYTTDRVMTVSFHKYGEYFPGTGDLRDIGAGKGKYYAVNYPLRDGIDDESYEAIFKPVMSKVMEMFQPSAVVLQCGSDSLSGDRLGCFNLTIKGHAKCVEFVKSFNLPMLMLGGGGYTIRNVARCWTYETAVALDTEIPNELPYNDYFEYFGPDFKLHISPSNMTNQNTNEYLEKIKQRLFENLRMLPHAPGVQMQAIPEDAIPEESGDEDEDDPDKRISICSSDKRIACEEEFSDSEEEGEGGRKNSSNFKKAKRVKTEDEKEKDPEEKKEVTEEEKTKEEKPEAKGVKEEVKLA
binder,measurement,value
GST-Rb 380-785 (domain or fragment) NTIQQLMMILNSASDQPSENLISYFNNCTVNPKESILKRVKDIGYIFKEKFAKAVGQGCVEIGSQRYKLGVRLYYRVMESMLKSEEERLSIQNFSKLLNDNIFHMSLLACALEVVMATYSRSTSQNLDSGTDLSFPWILNVLNLKAFDFYKVIESFIKAEGNLTREMIKHLERCEHRIMESLAWLSDSPLFDLIKQSKDREGPTDHLESACPLNLPLQNNHTAADMYLSPVRSPKKKGSTTRVNSTANAETQATSAFQTQKPLKSTSLSLFYKKVYRLAYLRLNTLCERLLSEHPELEHIIWTLFQHTLQNEYELMRDRHLDQIMMCSMYGICKVKNIDLKFKIIVTAYKDLPHAVQETFKRVLIKEEEYDSIIVFYNSVFMQRLKTNILQYASTRPPTLSPIPHI,binding result,binds
